According to patent US20190125833A1 (Five Prime, published 2019):

T1: Myostatin (UniProt O14793 267-375, limits assumed)
T1 sequence (looked up): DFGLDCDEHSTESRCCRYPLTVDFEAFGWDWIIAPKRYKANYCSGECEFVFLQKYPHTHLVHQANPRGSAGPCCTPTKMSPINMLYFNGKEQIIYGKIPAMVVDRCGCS


Target: T1, Myostatin
Experiment: cell-based or functional assay

Binder | IC50 of inhibition of myostatin dependent SMAD2/3 activation (luciferase reporter, HEK293, 0.1 nM myostatin) | fold difference of IC50 against hNOPE (1-620) ECD-FC | fold difference of IC50 against hNOPE (1-957) ECD-FC
hNOPE (1-957) ECD-FC (Fc fusion, not shown: a dimerising Fc or GST) ELLLPQETTVELSCGVGPLQVILGPEQAAVLNCSLGAAAAGPPTRVTWSKDGDTLLEHDHLHLLPNGSLWLSQPLAPNGSDESVPEAVGVIEGNYSCLAHGPLGVLASQTAVVKLATLADFSLHPESQTVEENGTARFECHIEGLPAPIITWEKDQVTLPEEPRLIVLPNGVLQILDVQESDAGPYRCVATNSARQHFSQEALLSVAHRGSLASTRGQDVVIVAAPENTTVVSGQSVVMECVASADPTPFVSWVRQDGKPISTDVIVLGRTNLLIANAQPWHSGVYVCRANKPRTRDFATAAAELRVLAAPAITQAPEALSRTRASTARFVCRASGEPRPALRWLHNGAPLRPNGRVKVQGGGGSLVITQIGLQDAGYYQCVAENSAGMACAAASLAVVVREGLPSAPTRVTATPLSSSAVLVAWERPEMHSEQIIGFSLHYQKARGMDNVEYQFAVNNDTTELQVRDLEPNTDYEFYVVAYSQLGASRTSTPALVHTLDDVPSAAPQLSLSSPNPSDIRVAWLPLPPSLSNGQVVKYKIEYGLGKEDQIFSTEVRGNETQLMLNSLQPNKVYRVRISAGTAAGFGAPSQWMHHRTPSMHNQSHVPFAPAELKVQAKMESLVVSWQPPPHPTQISGYKLYWREVGAEEEANGDRLPGGRGDQAWDVGPVRLKKKVKQYELTQLVPGRLYEVKLVAFNKHEDGYAAVWKGKTEKAPAPDMPIQRGPPLPPAHVHAESNSSTSIWLRWKKPDFTTVKIVNYTVRFSPWGLRNASLVTYYTSSGEDILIGGLKPFTKYEFAVQSHGVDMDGPFGSVVERSTLPDRPSTPPSDLRLSPLTPSTVRLHWCPPTEPNGEIVEYLILYSSNHTQPEHQWTLLTTQGNIFSAEVHGLESDTRYFFKMGARTEVGPGPFSRLQDVITLQEKLSDSLDMHSVT | 0.5 nM |  | 
mNOPE (1-955) ECD-FC (Fc fusion, not shown: a dimerising Fc or GST) ELPLPQETTVKLSCDEGPLQVILGPEQAVVLDCTLGATAAGPPTRVTWSKDGDTVLEHENLHLLPNGSLWLSSPLEQEDSDDEEALRIWKVTEGSYSCLAHSPLGVVASQVAVVKLATLEDFSLHPESQIVEENGTARFECHTKGLPAPIITWEKDQVTVPEESRLITLPNGVLQILDVQDSDAGSYRCVATNSARQRFSQEASLTVALRGSLEATRGQDVVIVAAPENTTVVSGQSVVMECVASADPTPFVSWVRQDGKPISTDVIVLGRTNLLIASAQPRHSGVYVCRANKPRTRDFATAAAELRVLAAPAISQAPEALSRTRASTARFVCRASGEPRPALHWLHDGIPLRPNGRVKVQGGGGSLVITQIGLQDAGYYQCVAENSAGTACAAAPLAVVVREGLPSAPTRVTATPLSSSSVLVAWERPELHSEQIIGFSLHYQKARGVDNVEYQFAVNNDTTELQVRDLEPNTDYEFYVVAYSQLGASRTSSPALVHTLDDVPSAAPQLTLSSPNPSDIRVAWLPLPSSLSNGQVLKYKIEYGLGKEDQVFSTEVPGNETQLTLNSLQPNKVYRVRISAGTGAGYGVPSQWMQHRTPGVHNQSHVPFAPAELKVRAKMESLVVSWQPPPHPTQISGYKLYWREVGTEEEADGDRPPGGRGDQAWDVGPVRLKKKVKQYELTQLVPGRLYEVKLVAFNKHEDGYAAVWKGKTEKAPTPDLPIQRGPPLPPAHVHAESNSSTSIWLRWKKPDFTTVKIVNYTVRFGPWGLRNASLVTYYTSSGEDILIGGLKPFTKYEFAVQSHGVDMDGPFGSVVERSTLPDRPSTPPSDLRLSPLTPSTVRLHWCPPTEPNGEIVEYLILYSNNHTQPEHQWTLLTTEGNIFSAEVHGLESDTRYFFKMGARTEVGPGPFSRLQDVITLQKTFSDSLDVHAV | 0.068 nM | 2.5 fold | 7 fold
